Data on two molecules can be found in PMC8245513, “Recapitulation of selective nuclear import and export with a perfectly repeated 12mer GLFG peptide” (Nature Communications, 2021).

The target of test [1] is T1, Alexa Fluor 488-labeled rat NTF2 (rat, UniProt P61972 1-127, Alexa Fluor 488 label (site not stated)).
T1 construct: nuclear transport factor 2 (NTF2), rat, 30-kDa nuclear transport receptor (dimer); The methods say that most NTRs were His-tagged fusions whose tags were cleaved off; also called Alexa488-labeled NTF2; source: bacterial expression construct, purified (native Ni(II) chelate chromatography)
T1 sequence (P61972 whole entry, the tested form may be a part): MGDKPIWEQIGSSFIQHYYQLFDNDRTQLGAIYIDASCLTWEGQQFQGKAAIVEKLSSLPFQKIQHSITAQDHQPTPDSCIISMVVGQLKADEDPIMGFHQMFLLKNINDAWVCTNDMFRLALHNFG
In words: partitioning into FG phase particles (FG particle permeation assay, confocal laser-scanning microscopy); FG domain diluted out of 4 M guanidinium hydrochloride into 50 mM Tris/HCl pH 7.5, 150 mM NaCl, 5 mM DTT, 5 µM FG domain; fluorescent probe in the buffer (mCherry 5 µM, probes with partition coefficient ≥2 at 0.75 µM); particles sedimented 60 min; ratio of fluorescence inside to outside the particles; 21 °C. Conditions: both partners purified.

The target of the next test is T2, human Exportin 1 (human, UniProt O14980 1-1071).
T2 construct: Exportin 1 (Xpo1/CRM1), human; also called hsXpo1; Xpo1; source: bacterial expression construct, purified (native Ni(II) chelate chromatography)
T2 sequence (O14980 whole entry): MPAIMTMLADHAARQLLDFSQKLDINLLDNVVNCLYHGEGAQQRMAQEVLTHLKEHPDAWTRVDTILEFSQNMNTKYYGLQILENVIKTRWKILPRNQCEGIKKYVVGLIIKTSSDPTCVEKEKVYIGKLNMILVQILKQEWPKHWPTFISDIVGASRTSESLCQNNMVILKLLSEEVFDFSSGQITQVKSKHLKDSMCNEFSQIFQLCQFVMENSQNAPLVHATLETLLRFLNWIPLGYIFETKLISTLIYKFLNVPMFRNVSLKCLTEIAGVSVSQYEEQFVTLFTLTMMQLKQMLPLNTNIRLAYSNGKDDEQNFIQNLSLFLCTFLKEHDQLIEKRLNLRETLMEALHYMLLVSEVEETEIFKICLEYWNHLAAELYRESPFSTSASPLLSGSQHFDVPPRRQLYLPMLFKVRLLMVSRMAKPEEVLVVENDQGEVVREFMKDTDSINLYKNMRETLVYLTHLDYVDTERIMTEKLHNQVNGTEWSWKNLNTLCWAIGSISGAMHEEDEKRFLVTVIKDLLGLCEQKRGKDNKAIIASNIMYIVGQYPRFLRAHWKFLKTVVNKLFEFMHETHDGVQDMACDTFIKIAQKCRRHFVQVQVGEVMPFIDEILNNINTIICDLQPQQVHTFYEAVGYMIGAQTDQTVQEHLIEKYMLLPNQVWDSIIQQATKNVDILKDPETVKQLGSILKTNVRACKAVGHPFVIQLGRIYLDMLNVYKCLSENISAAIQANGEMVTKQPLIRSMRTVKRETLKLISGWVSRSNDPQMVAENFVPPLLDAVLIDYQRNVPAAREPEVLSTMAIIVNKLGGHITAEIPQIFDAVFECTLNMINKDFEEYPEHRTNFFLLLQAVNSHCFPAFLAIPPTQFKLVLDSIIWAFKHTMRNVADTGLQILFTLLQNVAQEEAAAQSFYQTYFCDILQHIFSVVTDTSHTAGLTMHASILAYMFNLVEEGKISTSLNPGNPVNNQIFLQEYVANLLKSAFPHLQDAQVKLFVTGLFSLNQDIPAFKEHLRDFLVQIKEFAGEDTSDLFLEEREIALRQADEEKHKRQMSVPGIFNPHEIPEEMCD
In words: NTR-dependent recruitment of a fluorescent cargo into FG phase particles (confocal laser-scanning microscopy); prf.GLFG_(52x12) phase challenged with import cargo (IBB-EGFP; IBB-MBP-GFP-M9) or export cargo (NES-EGFP + RanQ69L) in the absence or presence of the corresponding NTRs (Impβ, transportin, Xpo1). The note with it: both partners purified.

B1: prf.GLFG_(52x12) (other)
chain: GGLFGGNTQPATGGLFGGNTQPATGGLFGGNTQPATGGLFGGNTQPATGGLFGGNTQPATGGLFGGNTQPATGGLFGGNTQPATGGLFGGNTQPATGGLFGGNTQPATGGLFGGNTQPATGGLFGGNTQPATGGLFGGNTQPATGGLFGGNTQPATGGLFGGNTQPATGGLFGGNTQPATGGLFGGNTQPATGGLFGGNTQPATGGLFGGNTQPATGGLFGGNTQPATGGLFGGNTQPATGGLFGGNTQPATGGLFGGNTQPATGGLFGGNTQPATGGLFGGNTQPATGGLFGGNTQPATGGLFGGNTQPATGGLFGGNTQPATGGLFGGNTQPATGGLFGGNTQPATGGLFGGNTQPATGGLFGGNTQPATGGLFGGNTQPATGGLFGGNTQPATGGLFGGNTQPATGGLFGGNTQPATGGLFGGNTQPATGGLFGGNTQPATGGLFGGNTQPATGGLFGGNTQPATGGLFGGNTQPATGGLFGGNTQPATGGLFGGNTQPATGGLFGGNTQPATGGLFGGNTQPATGGLFGGNTQPATGGLFGGNTQPATGGLFGGNTQPATGGLFGGNTQPATGGLFGGNTQPATGGLFGGNTQPATGGLFGGNTQPATGGLFGGNTQPATC
notes: C-terminal Cys residue fused for maleimide labelling; also called GLEBS-free, perfectly repeated FG variant; ultimately simplified FG domain
B1: in test [1], the binding result was “binds”.

B2: NES(PKI)-EGFP (other)
chain: SNELALKLAGLDIN
modifications: PKI-type NES core with short flanks, mEGFP carrier left out; the exact construct (PKI01, pTG-A450) is not printed and may be an optimised NES variant
As to B2, the “fold stimulation of the cargo's entry into the prf.GLFG_(52x12) phase by Xpo1 (with RanQ69L)” value with human Exportin 1 is 3500 fold.
